Experimental findings from article PMC6047671 are described below.

In this assay the target is human catalytic domain of MMP-14 (human).

Chain of human N-terminal domain of tissue inhibitor of metalloproteinase-2 (domain or fragment) (P16035 27-220): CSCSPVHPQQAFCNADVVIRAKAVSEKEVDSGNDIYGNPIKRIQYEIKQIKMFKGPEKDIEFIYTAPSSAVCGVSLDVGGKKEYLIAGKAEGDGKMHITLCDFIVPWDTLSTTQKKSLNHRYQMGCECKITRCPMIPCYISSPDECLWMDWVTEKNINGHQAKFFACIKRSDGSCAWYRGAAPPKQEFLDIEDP

On to “human N-terminal domain of tissue inhibitor of metalloproteinase-2 (domain or fragment)”, for which the IC50 of inhibition of hydrolysis of the FRET peptide substrate M-2350 (1 nM human cdMMP-14, 1 μM substrate) was 3 nM.
